Where no end group is shown, it is not given here. The star is where a group is joined. NBD = O=[N+]([O-])c1ccc(*)c2nonc12
Molecular target: T1, bovine serum albumin (bovine, UniProt P02769 25-607)
T1 construct: bovine serum albumin; Free BSA in PBS, not the crosslinked BSA shell of the nanoparticles; also called BSA; source: bought: Sigma
Assay: fluorescence polarisation; fluorescence anisotropy of NBD; constant 0.4 uM ATRAM-NBD, increasing BSA (0.25-15 uM); PBS; room temperature; excitation 460 nm, emission 535 nm
Conditions: both partners purified

T1 sequence (P02769 25-607): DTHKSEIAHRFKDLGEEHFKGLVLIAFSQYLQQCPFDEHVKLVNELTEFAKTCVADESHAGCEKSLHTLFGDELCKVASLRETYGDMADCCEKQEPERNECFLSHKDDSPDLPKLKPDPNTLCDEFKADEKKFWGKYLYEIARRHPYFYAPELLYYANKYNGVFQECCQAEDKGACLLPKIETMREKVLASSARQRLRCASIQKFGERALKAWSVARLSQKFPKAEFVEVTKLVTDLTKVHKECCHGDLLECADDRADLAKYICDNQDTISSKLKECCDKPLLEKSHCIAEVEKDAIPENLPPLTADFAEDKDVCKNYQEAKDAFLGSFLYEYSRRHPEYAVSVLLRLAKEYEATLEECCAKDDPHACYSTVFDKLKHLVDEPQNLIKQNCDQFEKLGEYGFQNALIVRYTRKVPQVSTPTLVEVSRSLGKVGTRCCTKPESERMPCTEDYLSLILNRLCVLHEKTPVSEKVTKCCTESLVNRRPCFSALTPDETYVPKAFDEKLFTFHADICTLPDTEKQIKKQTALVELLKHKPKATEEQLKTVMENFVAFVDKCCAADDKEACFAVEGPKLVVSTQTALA

B1: NBD-labeled ATRAM (acidity-triggered rational membrane peptide), C-terminal cysteine variant (peptide)
peptide: GLAGLAGLLGLEGLLGLPLGLLEGLWLGLELEC(NBD)N
notes: designed pH-responsive ATRAM peptide, variant with a cysteine (underlined in print) next to the C-terminal residue; also called ATRAM-NBD; source: C-terminal cysteine ATRAM variant labelled with NBD; purified by PD-10 gel filtration and reverse-phase HPLC (parent ATRAM peptide: synthesized by Selleck Chemicals, Fmoc)
Kd: 295 nM
